In assay [1] the target is Taxol-stabilized bovine microtubules labeled with Cy5 (bovine) (UniProt Q6B856). Put plainly: not stated; (the row names no known assay).
The target in assay [2] is T1, mNeonGreen-PAVE1 (Posterior And Ventral Edge protein 1), tagged at both endogenous alleles (T. brucei (endogenous locus, 427 strain), UniProt Q581X9 1-421).
T1 construct: PAVE1, Trypanosoma brucei, TriTrypDB Tb927.8.2030; expressed from the endogenous locus with an N-terminal tag; also called mNG-PAVE1; dET-mNeonGreen-PAVE1; source: endogenously tagged at both alleles, T. brucei 427 procyclic cells, in sonicated and clarified lysate; not shown: mNeonGreen, N-terminal, kept
T1 sequence (looked up): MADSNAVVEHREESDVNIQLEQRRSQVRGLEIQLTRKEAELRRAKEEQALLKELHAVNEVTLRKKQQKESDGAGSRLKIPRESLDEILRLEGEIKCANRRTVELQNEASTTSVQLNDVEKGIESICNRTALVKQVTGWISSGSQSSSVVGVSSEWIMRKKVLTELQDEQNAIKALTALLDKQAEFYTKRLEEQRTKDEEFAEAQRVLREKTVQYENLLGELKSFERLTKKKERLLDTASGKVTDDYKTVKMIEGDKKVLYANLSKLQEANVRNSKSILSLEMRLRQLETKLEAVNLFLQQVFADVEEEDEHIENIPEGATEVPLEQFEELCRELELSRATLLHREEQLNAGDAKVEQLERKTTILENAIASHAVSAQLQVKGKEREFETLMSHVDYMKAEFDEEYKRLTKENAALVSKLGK
Nature of the assay: affinity purification with mass spectrometry; mNeonGreen-PAVE1 captured from sonicated, clarified T. brucei lysate on magnetic mNeonGreen-Trap nanobody beads, 1 hr 4°C, 6 washes; on-bead tryptic digest and LC-MS/MS, and silver-stained SDS-PAGE of the eluate; WT 427 cells as control. The settings on record: partners not purified.

The results in this text go back to publication PMC8168904, “The Trypanosoma brucei subpellicular microtubule array is organized into functionally discrete subdomains defined by microtubule associated proteins” (PLoS Pathogens, 2021).

What is called stoichiometry N is a count of units in the complex or per binding partner.

In assay [1], “PAVE complex (mNeonGreen-PAVE1 with Strep-PAVE2)” gave a time that pre-seeded patches remained after wash-out of more than 20 min.

B1: PAVE2 (Tb927.9.11540), endogenous (natural protein, T. brucei (endogenous in 427 cells), UniProt Q38DN4 1-438, looked up)
chain: MADVSADSDAQVELERLNDVIDKYTCQVEHIDNLLQELEEENNSDSVSRQIAEYQSALESHPENIPAEDALEVITRLENTLKIVQRRNHLLEKENGTQNRLLEERSNVLLNATKTFDHIVDVTGWHDKFLFDAEDLRSKVADIREMSNIEAVVQKELRVAQGIIKKKEAALRQLEELVEQGKEQEAVLNNVYNDIRVKERDCSEVEMQLVRLRKSVAKTDEALAVFDLHNQNASLAYMESDRDYLRDSVAEMKSTTRRQDNVIKAQLTRQQQLQTRLDVIMKSLREMKLDKKYERNIPKSALVPSASREEPEDVSKILPESECIPVPTYRLLHKNNEMLRVIVMRKNMLVLEKNAVIEALEAGLAKYGSALITTYKEQQDLRQNKDMELIELMDDLQQQHSNYLEKLEELRLQNAALKKKMYRSTRQHAPLKGTRPMR
notes: PAVE2, Trypanosoma brucei, TriTrypDB Tb927.9.11540, predicted MW 51 kDa; also called uncharacterized protein Tb927.9.11540; source: endogenous, T. brucei 427 lysate (mNeonGreen-PAVE1 cells)
For B1, the “stoichiometry N” value in assay [2] is approximately 1.
